This is an account of results in patent US20260169005A1.

For assay [1], the target named is MSLN. As to the kind of experiment: ELISA on MSLN at pH 7, column 100 nM. (ELISA stands for enzyme-linked immunosorbent assay.)
Assay [2] deals with MSLN. As to the kind of experiment: ELISA on MSLN at pH 6, column 100 nM.
Assay [3] concerns the target MSLN. As to the kind of experiment: ELISA on MSLN at pH 6, column 1.5625 nM.
The target in assay [4] is MSLN. As to the kind of experiment: ELISA on MSLN at pH 6, column 6.25 nM.
The target of assay [5] is MSLN. The experiment in a line: ELISA on MSLN at pH 7, column 6.25 nM.
The target of assay [6] is MSLN. As to the kind of experiment: ELISA on MSLN at pH 7, column 25 nM.
Assay [7] concerns the target MSLN. As to the kind of experiment: ELISA on MSLN at pH 7, column 1.5625 nM.
The target of assay [8] is MSLN. As to the kind of experiment: ELISA on MSLN at pH 6, column 25 nM.

NC returned an ELISA reading at 100nM, pH=7 in assay [1] of 0.0239. Moreover, the ELISA reading at 100nM, pH=6 in assay [2] stood at 0.0154. For the same substance, the ELISA reading at 1.5625nM, pH=6 in assay [3] was 0.026. Further, in assay [4], the ELISA reading at 6.25nM, pH=6 was 0.0183. This substance also registered an ELISA reading at 6.25nM, pH=7 in assay [5] of 0.0318. Besides, in assay [6], the ELISA reading at 25nM, pH=7 was determined as 0.0354. In addition, the ELISA reading at 1.5625nM, pH=7 in assay [7] was found to be 0.0385. The substance also returned an ELISA reading at 25nM, pH=6 in assay [8] of 0.0152.
